Results published in paper PMC9352680, “A comprehensive thermodynamic model for RNA binding by the Saccharomyces cerevisiae Pumilio protein PUF4”.

T1: PUF4 RNA-binding domain (Saccharomyces cerevisiae, UniProt P25339 537-888)
T1 sequence: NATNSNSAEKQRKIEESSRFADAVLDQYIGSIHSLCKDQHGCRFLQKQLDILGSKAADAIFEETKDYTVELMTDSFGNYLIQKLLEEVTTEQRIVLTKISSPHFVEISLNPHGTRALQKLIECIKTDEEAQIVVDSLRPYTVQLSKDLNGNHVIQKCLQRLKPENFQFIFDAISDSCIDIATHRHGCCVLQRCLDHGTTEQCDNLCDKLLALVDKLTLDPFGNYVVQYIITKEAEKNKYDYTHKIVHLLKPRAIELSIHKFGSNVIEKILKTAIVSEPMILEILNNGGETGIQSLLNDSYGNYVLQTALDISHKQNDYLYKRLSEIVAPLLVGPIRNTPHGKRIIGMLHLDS


target: T1, PUF4 RNA-binding domain; test: Mg; RNA-MaP; 20 mM Na-HEPES pH 7.4, 30 mM KOAc, 0.75 mM MgCl2, 0.1% Tween-20, 5% glycerol, 0.1 mg/mL BSA, 2 mM DTT; 25 C; 0.0125-409.6 nM protein; conditions: tags: N-His6-TEV cleaved; C-SNAP kept, Cy3B-labelled; label: tethered on chip by stalled RNA polymerase

Binder | Kd [nM]
UCUCUUGCACACUUAUUAUUUCUCUU (ssRNA) [Id_ii_S1_P5E.4_K5.3_C5.2_[C-2G]_[T-1C]_H5.3_A5.1_F5.1_T5.2_[A12T]] | 1420
UCUCUUUCACACUUAUUACAUCUCUU (ssRNA) [Id_ii_S1_P5E.4_K5.3_C5.2_[C-2T]_[T-1C]_H5.3_A5.1_F5.1_T5.2_[T11C]] | > 2300
UCUCUUUUACACUUAUUAUCUCUCUU (ssRNA) [Id_ii_S1_P5E.4_K5.3_C5.2_[C-2T]_H5.3_A5.1_F5.1_T5.2_[A12C]] | > 2300
UCUCUUUAACACUUAUUAAUUCUCUU (ssRNA) [Id_ii_S1_P5E.4_K5.3_C5.2_[C-2T]_[T-1A]_H5.3_A5.1_F5.1_T5.2_[T11A]_[A12T]] | > 2300
UCUCUUGCACACUUAUUAUAUCUCUU (ssRNA) [Id_ii_S1_P5E.4_K5.3_C5.2_[C-2G]_[T-1C]_H5.3_A5.1_F5.1_T5.2] | 766
UCUCUUUCACACUUAUUAAUUCUCUU (ssRNA) [Id_ii_S1_P5E.4_K5.3_C5.2_[C-2T]_[T-1C]_H5.3_A5.1_F5.1_T5.2_[T11A]_[A12T]] | > 2300
UCUCUUAAACACUUAUUACGUCUCUU (ssRNA) [Id_ii_S1_P5E.4_K5.3_C5.2_[C-2A]_[T-1A]_H5.3_A5.1_F5.1_T5.2_[T11C]_[A12G]] | > 2300
UCUCUUAGACACUUAUUAAUUCUCUU (ssRNA) [Id_ii_S1_P5E.4_K5.3_C5.2_[C-2A]_[T-1G]_H5.3_A5.1_F5.1_T5.2_[T11A]_[A12T]] | > 2300
UCUCUUUGACACUUAUUAUCUCUCUU (ssRNA) [Id_ii_S1_P5E.4_K5.3_C5.2_[C-2T]_[T-1G]_H5.3_A5.1_F5.1_T5.2_[A12C]] | > 2300
UCUCUUAGACACUUAUUAACUCUCUU (ssRNA) [Id_ii_S1_P5E.4_K5.3_C5.2_[C-2A]_[T-1G]_H5.3_A5.1_F5.1_T5.2_[T11A]_[A12C]] | > 2300
UCUCUUUCACACUUAUUAUGUCUCUU (ssRNA) [Id_ii_S1_P5E.4_K5.3_C5.2_[C-2T]_[T-1C]_H5.3_A5.1_F5.1_T5.2_[A12G]] | > 2300
UCUCUUGCACACUUAUUAUCUCUCUU (ssRNA) [Id_ii_S1_P5E.4_K5.3_C5.2_[C-2G]_[T-1C]_H5.3_A5.1_F5.1_T5.2_[A12C]] | 1160
UCUCUUUAACACUUAUUACGUCUCUU (ssRNA) [Id_ii_S1_P5E.4_K5.3_C5.2_[C-2T]_[T-1A]_H5.3_A5.1_F5.1_T5.2_[T11C]_[A12G]] | > 2300
UCUCUUGUACACUUAUUAUUUCUCUU (ssRNA) [Id_ii_S1_P5E.4_K5.3_C5.2_[C-2G]_H5.3_A5.1_F5.1_T5.2_[A12T]] | 3.73
UCUCUUUUACACUUAUUAACUCUCUU (ssRNA) [Id_ii_S1_P5E.4_K5.3_C5.2_[C-2T]_H5.3_A5.1_F5.1_T5.2_[T11A]_[A12C]] | > 2300
UCUCUUUGUAUUACUCUCUCUU (ssRNA) [Ib_S1_P5E.1_K5.1_C5.1_H5.1_A5.1_F5.1_[T8C]_[A10C]_T5.1] | 133
UCUCUUUCACACUUAUUACUUCUCUU (ssRNA) [Id_ii_S1_P5E.4_K5.3_C5.2_[C-2T]_[T-1C]_H5.3_A5.1_F5.1_T5.2_[T11C]_[A12T]] | > 2300
UCUCUUACACACUUAUUAAAUCUCUU (ssRNA) [Id_ii_S1_P5E.4_K5.3_C5.2_[C-2A]_[T-1C]_H5.3_A5.1_F5.1_T5.2_[T11A]] | > 2300
UCUCUUACACACUUAUUAUUUCUCUU (ssRNA) [Id_ii_S1_P5E.4_K5.3_C5.2_[C-2A]_[T-1C]_H5.3_A5.1_F5.1_T5.2_[A12T]] | > 2300
UCUCUUGUACACUUAUUAAUUCUCUU (ssRNA) [Id_ii_S1_P5E.4_K5.3_C5.2_[C-2G]_H5.3_A5.1_F5.1_T5.2_[T11A]_[A12T]] | 4.75
UCUCUUAGACACUUAUUACAUCUCUU (ssRNA) [Id_ii_S1_P5E.4_K5.3_C5.2_[C-2A]_[T-1G]_H5.3_A5.1_F5.1_T5.2_[T11C]] | > 2300

Binder | Kd [nM]
UCUCUUUUACACUUAUUAUGUCUCUU (ssRNA) [Id_ii_S1_P5E.4_K5.3_C5.2_[C-2T]_H5.3_A5.1_F5.1_T5.2_[A12G]] | > 2300
UCUCUUGUACACUUAUUAGCUCUCUU (ssRNA) [Id_ii_S1_P5E.4_K5.3_C5.2_[C-2G]_H5.3_A5.1_F5.1_T5.2_[T11G]_[A12C]] | 5.16
UCUCUUUAACACUUAUUACCUCUCUU (ssRNA) [Id_ii_S1_P5E.4_K5.3_C5.2_[C-2T]_[T-1A]_H5.3_A5.1_F5.1_T5.2_[T11C]_[A12C]] | > 2300
UCUCUUACACACUUAUUAGCUCUCUU (ssRNA) [Id_ii_S1_P5E.4_K5.3_C5.2_[C-2A]_[T-1C]_H5.3_A5.1_F5.1_T5.2_[T11G]_[A12C]] | > 2300
UCUCUUACACACUUAUUACCUCUCUU (ssRNA) [Id_ii_S1_P5E.4_K5.3_C5.2_[C-2A]_[T-1C]_H5.3_A5.1_F5.1_T5.2_[T11C]_[A12C]] | > 2300
UCUCUUUAACACUUAUUAAAUCUCUU (ssRNA) [Id_ii_S1_P5E.4_K5.3_C5.2_[C-2T]_[T-1A]_H5.3_A5.1_F5.1_T5.2_[T11A]] | > 2300
UCUCUUUCACACUUAUUAAAUCUCUU (ssRNA) [Id_ii_S1_P5E.4_K5.3_C5.2_[C-2T]_[T-1C]_H5.3_A5.1_F5.1_T5.2_[T11A]] | > 2300
UCUCUUUCACACUUAUUAUCUCUCUU (ssRNA) [Id_ii_S1_P5E.4_K5.3_C5.2_[C-2T]_[T-1C]_H5.3_A5.1_F5.1_T5.2_[A12C]] | > 2300
UCUCUUUGUAUUAUCGUCUCUU (ssRNA) [Ib_S1_P5E.1_K5.1_C5.1_H5.1_A5.1_F5.1_[T9C]_[A10G]_T5.1] | 30.6
UCUCUUUAACACUUAUUAUUUCUCUU (ssRNA) [Id_ii_S1_P5E.4_K5.3_C5.2_[C-2T]_[T-1A]_H5.3_A5.1_F5.1_T5.2_[A12T]] | > 2300
UCUCUUACACACUUAUUAAUUCUCUU (ssRNA) [Id_ii_S1_P5E.4_K5.3_C5.2_[C-2A]_[T-1C]_H5.3_A5.1_F5.1_T5.2_[T11A]_[A12T]] | > 2300
UCUCUUAGACACUUAUUACCUCUCUU (ssRNA) [Id_ii_S1_P5E.4_K5.3_C5.2_[C-2A]_[T-1G]_H5.3_A5.1_F5.1_T5.2_[T11C]_[A12C]] | > 2300
UCUCUUAGACACUUAUUAAAUCUCUU (ssRNA) [Id_ii_S1_P5E.4_K5.3_C5.2_[C-2A]_[T-1G]_H5.3_A5.1_F5.1_T5.2_[T11A]] | > 2300
UCUCUUAGACACUUAUUACUUCUCUU (ssRNA) [Id_ii_S1_P5E.4_K5.3_C5.2_[C-2A]_[T-1G]_H5.3_A5.1_F5.1_T5.2_[T11C]_[A12T]] | > 2300
UCUCUUAGACACUUAUUAUUUCUCUU (ssRNA) [Id_ii_S1_P5E.4_K5.3_C5.2_[C-2A]_[T-1G]_H5.3_A5.1_F5.1_T5.2_[A12T]] | > 2300
UCUCUUUUACACUUAUUAUUUCUCUU (ssRNA) [Id_ii_S1_P5E.4_K5.3_C5.2_[C-2T]_H5.3_A5.1_F5.1_T5.2_[A12T]] | > 2300
UCUCUUUGUAUUAUGGUCUCUU (ssRNA) [Ib_S1_P5E.1_K5.1_C5.1_H5.1_A5.1_F5.1_[T9G]_[A10G]_T5.1] | 7.8
UCUCUUUGUAUUACUUUCUCUU (ssRNA) [Ib_S1_P5E.1_K5.1_C5.1_H5.1_A5.1_F5.1_[T8C]_[A10T]_T5.1] | 44.6
UCUCUUUUACACUUAUUAUAUCUCUU (ssRNA) [Id_ii_S1_P5E.4_K5.3_C5.2_[C-2T]_H5.3_A5.1_F5.1_T5.2] | > 2300
UCUCUUAAACACUUAUUACCUCUCUU (ssRNA) [Id_ii_S1_P5E.4_K5.3_C5.2_[C-2A]_[T-1A]_H5.3_A5.1_F5.1_T5.2_[T11C]_[A12C]] | > 2300
UCUCUUUUACACUUAUUAAAUCUCUU (ssRNA) [Id_ii_S1_P5E.4_K5.3_C5.2_[C-2T]_H5.3_A5.1_F5.1_T5.2_[T11A]] | > 2300

Binder | Kd [nM]
UCUCUUUAACACUUAUUAUAUCUCUU (ssRNA) [Id_ii_S1_P5E.4_K5.3_C5.2_[C-2T]_[T-1A]_H5.3_A5.1_F5.1_T5.2] | > 2300
UCUCUUGUACACUUAUUACUUCUCUU (ssRNA) [Id_ii_S1_P5E.4_K5.3_C5.2_[C-2G]_H5.3_A5.1_F5.1_T5.2_[T11C]_[A12T]] | 5.88
UCUCUUUCACACUUAUUAUAUCUCUU (ssRNA) [Id_ii_S1_P5E.4_K5.3_C5.2_[C-2T]_[T-1C]_H5.3_A5.1_F5.1_T5.2] | > 2300
UCUCUUUGUAUUAUGUUCUCUU (ssRNA) [Ib_S1_P5E.1_K5.1_C5.1_H5.1_A5.1_F5.1_[T9G]_[A10T]_T5.1] | 10.8
UCUCUUUGUAUUAUGCUCUCUU (ssRNA) [Ib_S1_P5E.1_K5.1_C5.1_H5.1_A5.1_F5.1_[T9G]_[A10C]_T5.1] | 15.2
UCUCUUACACACUUAUUAUAUCUCUU (ssRNA) [Id_ii_S1_P5E.4_K5.3_C5.2_[C-2A]_[T-1C]_H5.3_A5.1_F5.1_T5.2] | > 2300
UCUCUUUGUAUUAUCAUCUCUU (ssRNA) [Ia_S1_P5E.1_K5.1_C5.1_H5.1_A5.1_F5.1_[T9C]_T5.1] | 21.9
UCUCUUUCACACUUAUUAUUUCUCUU (ssRNA) [Id_ii_S1_P5E.4_K5.3_C5.2_[C-2T]_[T-1C]_H5.3_A5.1_F5.1_T5.2_[A12T]] | > 2300
UCUCUUUCACACUUAUUACGUCUCUU (ssRNA) [Id_ii_S1_P5E.4_K5.3_C5.2_[C-2T]_[T-1C]_H5.3_A5.1_F5.1_T5.2_[T11C]_[A12G]] | > 2300
UCUCUUUAACACUUAUUACAUCUCUU (ssRNA) [Id_ii_S1_P5E.4_K5.3_C5.2_[C-2T]_[T-1A]_H5.3_A5.1_F5.1_T5.2_[T11C]] | > 2300
UCUCUUGUACACUUAUUACCUCUCUU (ssRNA) [Id_ii_S1_P5E.4_K5.3_C5.2_[C-2G]_H5.3_A5.1_F5.1_T5.2_[T11C]_[A12C]] | 3.22
UCUCUUGUACACUUAUUAAAUCUCUU (ssRNA) [Id_ii_S1_P5E.4_K5.3_C5.2_[C-2G]_H5.3_A5.1_F5.1_T5.2_[T11A]] | 3.63
UCUCUUUAACACUUAUUAUCUCUCUU (ssRNA) [Id_ii_S1_P5E.4_K5.3_C5.2_[C-2T]_[T-1A]_H5.3_A5.1_F5.1_T5.2_[A12C]] | > 2300
UCUCUUUUACACUUAUUACCUCUCUU (ssRNA) [Id_ii_S1_P5E.4_K5.3_C5.2_[C-2T]_H5.3_A5.1_F5.1_T5.2_[T11C]_[A12C]] | > 2300
UCUCUUGUACACUUAUUAUCUCUCUU (ssRNA) [Id_ii_S1_P5E.4_K5.3_C5.2_[C-2G]_H5.3_A5.1_F5.1_T5.2_[A12C]] | 2.94
UCUCUUUCACACUUAUUACCUCUCUU (ssRNA) [Id_ii_S1_P5E.4_K5.3_C5.2_[C-2T]_[T-1C]_H5.3_A5.1_F5.1_T5.2_[T11C]_[A12C]] | > 2300
UCUCUUUAACACUUAUUACUUCUCUU (ssRNA) [Id_ii_S1_P5E.4_K5.3_C5.2_[C-2T]_[T-1A]_H5.3_A5.1_F5.1_T5.2_[T11C]_[A12T]] | > 2300
UCUCUUUCACACUUAUUAGCUCUCUU (ssRNA) [Id_ii_S1_P5E.4_K5.3_C5.2_[C-2T]_[T-1C]_H5.3_A5.1_F5.1_T5.2_[T11G]_[A12C]] | > 2300
UCUCUUUCACACUUAUUAACUCUCUU (ssRNA) [Id_ii_S1_P5E.4_K5.3_C5.2_[C-2T]_[T-1C]_H5.3_A5.1_F5.1_T5.2_[T11A]_[A12C]] | > 2300
UCUCUUGUACACUUAUUAUAUCUCUU (ssRNA) [Id_ii_S1_P5E.4_K5.3_C5.2_[C-2G]_H5.3_A5.1_F5.1_T5.2] | 3.91
